Source: PMC10501992, “How Pol α-primase is targeted to replisomes to prime eukaryotic DNA replication” (Molecular Cell, 2023)

Key:
Conditions in all cases: both partners purified
[1] = target: T1, POLA2 (human Pol α accessory subunit) (human, UniProt Q14181 1-598); test: cryo-EM structure; human replisome: 150 nM CMG on fork DNA (60 nt or 15 nt 5′ flap) with 1.5-fold molar excess of AND-1, TIMELESS-TIPIN, CLASPIN and Pol α-primase; 25 mM HEPES-NaOH pH 7.6, 150 mM NaOAc, 0.5 mM TCEP, 500 μM AMP-PNP, 10 mM Mg(OAc)2, on ice; 10-30% glycerol gradient with glutaraldehyde and BS3 cross-linkers
T1 construct: POLA2, human; stood in the assay as a subunit of m18
T1 sequence: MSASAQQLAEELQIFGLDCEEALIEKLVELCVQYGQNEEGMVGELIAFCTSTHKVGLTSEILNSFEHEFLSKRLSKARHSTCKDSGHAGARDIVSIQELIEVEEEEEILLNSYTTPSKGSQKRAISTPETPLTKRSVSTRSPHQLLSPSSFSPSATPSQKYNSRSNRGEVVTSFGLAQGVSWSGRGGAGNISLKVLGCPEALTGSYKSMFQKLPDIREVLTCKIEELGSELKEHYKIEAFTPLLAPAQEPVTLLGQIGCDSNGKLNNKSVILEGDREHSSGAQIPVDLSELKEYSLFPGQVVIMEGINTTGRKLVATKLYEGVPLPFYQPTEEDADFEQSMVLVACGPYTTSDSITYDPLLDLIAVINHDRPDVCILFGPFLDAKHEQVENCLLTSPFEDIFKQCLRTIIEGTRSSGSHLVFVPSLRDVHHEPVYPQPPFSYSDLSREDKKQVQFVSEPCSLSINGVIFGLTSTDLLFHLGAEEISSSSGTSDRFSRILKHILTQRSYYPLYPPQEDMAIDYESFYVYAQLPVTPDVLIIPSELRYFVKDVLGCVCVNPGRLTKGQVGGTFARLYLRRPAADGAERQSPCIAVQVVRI

[2] = target: T2, Pol1 (budding yeast Pol α catalytic subunit) (S. cerevisiae, UniProt P13382 1-1468); test: cryo-EM structure; budding yeast replisome: 150 nM CMG on fork DNA (39 nt 3′ flap, 60 nt 5′ flap) with 1.5-fold molar excess of Tof1-Csm3, Mrc1 and Pol α-primase; 25 mM HEPES-NaOH pH 7.6, 150 mM NaOAc, 0.5 mM TCEP, 500 μM AMP-PNP, 10 mM Mg(OAc)2, on ice; 10-30% glycerol gradient with glutaraldehyde and BS3 cross-linkers
T2 construct: Pol1, S. cerevisiae; modelled: CTD 1271-1468 and CIP box F140-S149; stood in the assay as a subunit of m1; also called Pol1CTD; Pol1CIP; source: subunit of Pol α-primase from S. cerevisiae strain yAE95, purified as described previously
T2 sequence: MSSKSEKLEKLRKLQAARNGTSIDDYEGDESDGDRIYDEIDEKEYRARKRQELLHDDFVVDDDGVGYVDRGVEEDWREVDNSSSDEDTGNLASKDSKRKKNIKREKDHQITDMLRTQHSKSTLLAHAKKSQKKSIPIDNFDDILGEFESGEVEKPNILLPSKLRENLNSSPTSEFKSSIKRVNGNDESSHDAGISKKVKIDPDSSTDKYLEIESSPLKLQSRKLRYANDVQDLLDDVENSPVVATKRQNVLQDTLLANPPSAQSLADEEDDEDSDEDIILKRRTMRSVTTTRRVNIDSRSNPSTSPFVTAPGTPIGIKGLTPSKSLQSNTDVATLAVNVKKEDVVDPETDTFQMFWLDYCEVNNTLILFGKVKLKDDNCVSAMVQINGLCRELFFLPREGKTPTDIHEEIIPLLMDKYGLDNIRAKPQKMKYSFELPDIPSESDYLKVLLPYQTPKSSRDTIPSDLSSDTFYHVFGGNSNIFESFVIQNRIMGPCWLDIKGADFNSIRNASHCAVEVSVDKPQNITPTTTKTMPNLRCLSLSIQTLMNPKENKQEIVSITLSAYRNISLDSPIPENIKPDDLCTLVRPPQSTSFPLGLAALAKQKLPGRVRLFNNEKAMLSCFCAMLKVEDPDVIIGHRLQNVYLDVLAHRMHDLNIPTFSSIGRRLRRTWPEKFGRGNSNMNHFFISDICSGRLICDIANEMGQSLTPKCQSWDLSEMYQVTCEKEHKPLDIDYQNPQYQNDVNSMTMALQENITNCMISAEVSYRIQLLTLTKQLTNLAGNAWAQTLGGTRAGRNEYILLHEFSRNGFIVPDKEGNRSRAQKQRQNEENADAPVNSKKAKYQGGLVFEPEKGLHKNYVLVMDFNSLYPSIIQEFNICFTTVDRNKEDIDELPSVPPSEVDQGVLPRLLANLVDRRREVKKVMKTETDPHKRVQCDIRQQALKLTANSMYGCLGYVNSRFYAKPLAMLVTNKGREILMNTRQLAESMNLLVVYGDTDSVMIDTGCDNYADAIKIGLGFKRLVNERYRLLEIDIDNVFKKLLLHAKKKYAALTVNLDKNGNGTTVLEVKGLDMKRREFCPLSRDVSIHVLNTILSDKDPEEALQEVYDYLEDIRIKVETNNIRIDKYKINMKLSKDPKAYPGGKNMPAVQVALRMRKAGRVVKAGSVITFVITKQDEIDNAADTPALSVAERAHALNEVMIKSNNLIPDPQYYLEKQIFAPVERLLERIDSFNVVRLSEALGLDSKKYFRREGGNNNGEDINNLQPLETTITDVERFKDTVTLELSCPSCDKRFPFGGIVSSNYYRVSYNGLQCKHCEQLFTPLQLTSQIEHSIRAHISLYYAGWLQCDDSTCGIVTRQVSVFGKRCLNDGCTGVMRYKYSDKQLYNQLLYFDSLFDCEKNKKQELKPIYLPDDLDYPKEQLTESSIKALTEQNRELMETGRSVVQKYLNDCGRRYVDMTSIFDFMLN

[3] = target: T3, Mcm3 (budding yeast) (S. cerevisiae, UniProt P24279 1-971); test: as above
T3 construct: Mcm3, S. cerevisiae; stood in the assay as a subunit of m2; source: subunit of CMG from S. cerevisiae strain yJY197, purified as described previously

[4] = target: T4, Mcm5 (budding yeast) (S. cerevisiae, UniProt P29496 1-775); test: as above
T4 construct: Mcm5, S. cerevisiae; stood in the assay as a subunit of m2; also called Mcm5ZnF; source: subunit of CMG from S. cerevisiae strain yJY197, purified as described previously
T4 sequence: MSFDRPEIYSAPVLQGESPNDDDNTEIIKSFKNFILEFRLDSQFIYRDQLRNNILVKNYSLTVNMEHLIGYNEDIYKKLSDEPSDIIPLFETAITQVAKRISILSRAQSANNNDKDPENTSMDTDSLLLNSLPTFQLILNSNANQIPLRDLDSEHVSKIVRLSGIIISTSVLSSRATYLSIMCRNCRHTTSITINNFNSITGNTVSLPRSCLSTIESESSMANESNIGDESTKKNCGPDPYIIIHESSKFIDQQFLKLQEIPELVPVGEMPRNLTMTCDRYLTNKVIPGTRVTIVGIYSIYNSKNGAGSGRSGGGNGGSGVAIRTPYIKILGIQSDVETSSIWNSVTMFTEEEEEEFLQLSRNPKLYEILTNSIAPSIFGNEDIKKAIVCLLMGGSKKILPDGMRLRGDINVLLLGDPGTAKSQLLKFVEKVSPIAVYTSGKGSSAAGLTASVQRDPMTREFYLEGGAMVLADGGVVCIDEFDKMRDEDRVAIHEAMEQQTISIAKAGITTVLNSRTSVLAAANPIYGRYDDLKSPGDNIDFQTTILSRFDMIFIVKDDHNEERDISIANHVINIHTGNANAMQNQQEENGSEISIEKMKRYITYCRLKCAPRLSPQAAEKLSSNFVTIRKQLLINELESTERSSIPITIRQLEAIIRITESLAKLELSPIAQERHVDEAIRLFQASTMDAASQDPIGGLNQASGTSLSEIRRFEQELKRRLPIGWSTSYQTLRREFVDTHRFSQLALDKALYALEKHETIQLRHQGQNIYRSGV

[5] = target: T5, MCM3 (human) (human, UniProt P25205 1-808); test: cryo-EM structure; human replisome: 150 nM CMG on fork DNA (60 nt or 15 nt 5′ flap) with 1.5-fold molar excess of AND-1, TIMELESS-TIPIN, CLASPIN and Pol α-primase; 25 mM HEPES-NaOH pH 7.6, 150 mM NaOAc, 0.5 mM TCEP, 500 μM AMP-PNP, 10 mM Mg(OAc)2, on ice; 10-30% glycerol gradient with glutaraldehyde and BS3 cross-linkers
T5 construct: MCM3, human; stood in the assay as a subunit of m19
T5 sequence: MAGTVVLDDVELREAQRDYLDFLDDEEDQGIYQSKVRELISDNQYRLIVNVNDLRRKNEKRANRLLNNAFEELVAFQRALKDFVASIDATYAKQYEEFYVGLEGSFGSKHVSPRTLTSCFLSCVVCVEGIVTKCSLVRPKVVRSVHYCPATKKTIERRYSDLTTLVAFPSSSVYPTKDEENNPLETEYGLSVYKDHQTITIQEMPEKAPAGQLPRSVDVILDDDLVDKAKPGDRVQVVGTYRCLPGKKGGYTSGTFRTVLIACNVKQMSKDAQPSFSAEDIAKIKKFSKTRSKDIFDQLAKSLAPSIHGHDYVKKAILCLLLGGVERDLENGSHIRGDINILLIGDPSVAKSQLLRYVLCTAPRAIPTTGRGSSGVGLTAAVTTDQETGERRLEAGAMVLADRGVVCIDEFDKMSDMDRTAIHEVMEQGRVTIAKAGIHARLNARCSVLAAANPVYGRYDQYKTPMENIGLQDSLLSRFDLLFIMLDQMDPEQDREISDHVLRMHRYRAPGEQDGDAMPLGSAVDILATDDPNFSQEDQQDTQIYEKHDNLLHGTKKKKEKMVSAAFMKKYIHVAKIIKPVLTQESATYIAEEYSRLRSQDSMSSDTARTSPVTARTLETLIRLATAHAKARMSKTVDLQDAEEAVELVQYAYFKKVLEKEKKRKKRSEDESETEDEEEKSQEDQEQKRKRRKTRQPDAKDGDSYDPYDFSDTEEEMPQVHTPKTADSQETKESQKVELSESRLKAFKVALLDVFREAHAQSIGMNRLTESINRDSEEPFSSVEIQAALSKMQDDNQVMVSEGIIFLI

T3 sequence (P24279 whole entry): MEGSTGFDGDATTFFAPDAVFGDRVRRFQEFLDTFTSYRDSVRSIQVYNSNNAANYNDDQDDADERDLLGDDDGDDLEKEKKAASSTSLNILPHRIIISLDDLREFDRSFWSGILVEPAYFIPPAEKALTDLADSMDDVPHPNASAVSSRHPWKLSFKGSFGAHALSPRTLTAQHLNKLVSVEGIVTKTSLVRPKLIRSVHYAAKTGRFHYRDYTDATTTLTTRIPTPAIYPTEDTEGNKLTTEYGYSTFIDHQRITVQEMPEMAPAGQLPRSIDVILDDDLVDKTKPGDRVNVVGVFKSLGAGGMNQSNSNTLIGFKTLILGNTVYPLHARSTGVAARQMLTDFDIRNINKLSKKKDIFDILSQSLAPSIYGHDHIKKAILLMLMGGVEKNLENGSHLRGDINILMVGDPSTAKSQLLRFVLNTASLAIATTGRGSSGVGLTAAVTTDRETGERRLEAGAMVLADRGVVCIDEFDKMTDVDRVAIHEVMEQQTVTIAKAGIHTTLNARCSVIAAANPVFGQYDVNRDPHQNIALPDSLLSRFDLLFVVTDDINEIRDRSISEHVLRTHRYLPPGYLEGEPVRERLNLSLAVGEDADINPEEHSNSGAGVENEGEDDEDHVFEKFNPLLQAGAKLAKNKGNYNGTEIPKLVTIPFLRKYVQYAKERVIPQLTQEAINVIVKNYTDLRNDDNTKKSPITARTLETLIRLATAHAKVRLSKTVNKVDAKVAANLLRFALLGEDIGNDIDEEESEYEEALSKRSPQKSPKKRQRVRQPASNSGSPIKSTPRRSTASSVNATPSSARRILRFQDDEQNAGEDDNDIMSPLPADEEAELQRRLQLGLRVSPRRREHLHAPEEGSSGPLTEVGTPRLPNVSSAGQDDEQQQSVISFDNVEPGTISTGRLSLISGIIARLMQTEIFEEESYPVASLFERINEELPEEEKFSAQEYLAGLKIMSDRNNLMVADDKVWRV

B1: PSF1 (human GINS subunit) (natural protein)
chain: MFCEKAMELIRELHRAPEGQLPAFNEDGLRQVLEEMKALYEQNQSDVNEAKSGGRSDLIPTIKFRHCSLLRNRRCTVAYLYDRLLRIRALRWEYGSVLPNALRFHMAAEEMEWFNNYKRSLATYMRSLGGDEGLDITQDMKPPKSLYIEVRCLKDYGEFEVDDGTSVLLKKNSQHFLPRWKCEQLIRQGVLEHILS
notes: PSF1, subunit of GINS, human; stood in the assay as a subunit of m19
B1: binds [1].

B2: Pri2 (budding yeast primase accessory subunit) (natural protein, S. cerevisiae)
chain: MFRQSKRRIASRKNFSSYDDIVKSELDVGNTNAANQIILSSSSSEEEKKLYARLYESKLSFYDLPPQGEITLEQFEIWAIDRLKILLEIESCLSRNKSIKEIETIIKPQFQKLLPFNTESLEDRKKDYYSHFILRLCFCRSKELREKFVRAETFLFKIRFNMLTSTDQTKFVQSLDLPLLQFISNEEKAELSHQLYQTVSASLQFQLNLNEEHQRKQYFQQEKFIKLPFENVIELVGNRLVFLKDGYAYLPQFQQLNLLSNEFASKLNQELIKTYQYLPRLNEDDRLLPILNHLSSGYTIADFNQQKANQFSENVDDEINAQSVWSEEISSNYPLCIKNLMEGLKKNHHLRYYGRQQLSLFLKGIGLSADEALKFWSEAFTRNGNMTMEKFNKEYRYSFRHNYGLEGNRINYKPWDCHTILSKPRPGRGDYHGCPFRDWSHERLSAELRSMKLTQAQIISVLDSCQKGEYTIACTKVFEMTHNSASADLEIGEQTHIAHPNLYFERSRQLQKKQQKLEKEKLFNNGNH
notes: Pri2, S. cerevisiae; modelled residues 1-5 (N terminus), 44-177 and 181-299 (NTD); stood in the assay as a subunit of m1; also called Pri2NTD; Pri2_(Nterm); source: subunit of Pol α-primase from S. cerevisiae strain yAE95, purified as described previously
B2: binds [2]; binds [3]; binds [4].

B3: PRIM2 (human primase accessory subunit) (natural protein)
chain: MEFSGRKWRKLRLAGDQRNASYPHCLQFYLQPPSENISLIEFENLAIDRVKLLKSVENLGVSYVKGTEQYQSKLESELRKLKFSYRENLEDEYEPRRRDHISHFILRLAYCQSEELRRWFIQQEMDLLRFRFSILPKDKIQDFLKDSQLQFEAISDEEKTLREQEIVASSPSLSGLKLGFESIYKIPFADALDLFRGRKVYLEDGFAYVPLKDIVAIILNEFRAKLSKALALTARSLPAVQSDERLQPLLNHLSHSYTGQDYSTQGNVGKISLDQIDLLSTKSFPPCMRQLHKALRENHHLRHGGRMQYGLFLKGIGLTLEQALQFWKQEFIKGKMDPDKFDKGYSYNIRHSFGKEGKRTDYTPFSCLKIILSNPPSQGDYHGCPFRHSDPELLKQKLQSYKISPGGISQILDLVKGTHYQVACQKYFEMIHNVDDCGFSLNHPNQFFCESQRILNGGKDIKKEPIQPETPQPKPSVQKTKDASSALASLNSSLEMDMEGLEDYFSEDS
notes: PRIM2, human; modelled residues 1-5 (N terminus) and 17-252 (NTD); stood in the assay as a subunit of m18; also called PRIM2NTD; PRIM2_(Nterm)
B3: binds [5].
